In assay [1] the target is T1, human protein Axl (cellular form on the cell surface) (human, UniProt P30530 26-894).
T1 construct: also called Axl receptor; membrane Axl receptor
T1 sequence: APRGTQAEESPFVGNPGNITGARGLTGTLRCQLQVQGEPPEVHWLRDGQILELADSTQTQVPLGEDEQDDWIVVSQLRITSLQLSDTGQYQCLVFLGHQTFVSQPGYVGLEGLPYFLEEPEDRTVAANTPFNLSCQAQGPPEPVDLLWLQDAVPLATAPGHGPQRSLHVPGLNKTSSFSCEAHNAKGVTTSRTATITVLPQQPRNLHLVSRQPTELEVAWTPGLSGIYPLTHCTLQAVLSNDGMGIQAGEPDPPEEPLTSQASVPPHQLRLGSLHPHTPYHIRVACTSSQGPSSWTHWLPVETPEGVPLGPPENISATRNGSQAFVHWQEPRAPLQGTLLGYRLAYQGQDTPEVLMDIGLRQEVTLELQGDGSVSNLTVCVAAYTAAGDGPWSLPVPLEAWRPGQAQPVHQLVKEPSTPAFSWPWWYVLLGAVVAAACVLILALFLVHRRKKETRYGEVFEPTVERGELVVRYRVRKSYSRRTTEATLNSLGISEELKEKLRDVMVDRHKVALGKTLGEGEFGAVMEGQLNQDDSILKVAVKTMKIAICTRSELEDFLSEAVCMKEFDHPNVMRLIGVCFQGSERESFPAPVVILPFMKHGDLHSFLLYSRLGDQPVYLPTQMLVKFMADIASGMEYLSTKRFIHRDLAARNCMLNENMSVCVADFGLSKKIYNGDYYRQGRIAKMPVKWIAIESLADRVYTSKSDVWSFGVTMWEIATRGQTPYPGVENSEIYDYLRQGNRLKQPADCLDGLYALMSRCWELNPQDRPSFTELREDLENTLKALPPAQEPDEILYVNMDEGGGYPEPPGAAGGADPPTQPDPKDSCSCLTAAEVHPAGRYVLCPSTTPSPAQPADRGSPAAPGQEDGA
As to the kind of experiment: flow cytometry on MDA-MB-231 cells, goat anti-mouse Alexa 488. The protocol:
For cell surface binding studies, two fold serial dilutions of a 10 μg/m (6.66 10⁻⁸ M) primary antibody solution (1613F12, MAB154 antibody or mIgG1 isotype control 9G4 Mab) are prepared and are applied on 2.10⁵ cells for 20 min at 4° C. After 3 washes in phosphate-buffered saline (PBS) supplemented with 1% BSA and 0.01% NaN₃, cells were incubated with secondary antibody Goat anti-mouse Alexa 488 (1/500° dilution) for 20 minutes at 4° C. After 3 additional washes in PBS supplemented with 1% BSA and 0.1% NaN₃, cells were analyzed by FACS (Facscalibur, Becton-Dickinson). At least 5000 cells were assessed to calculate the mean value of fluorescence intensity.

Assay [2] concerns the target T2, recombinant mouse Axl-Fc (R and D systems, cat No 854-AX/CF) (mouse, UniProt Q00993 19-445).
T2 construct: extracellular domain; Bought protein; also called rmAxl-Fc; murine Axl ECD domain; not shown: Fc portion (coating control with anti-human IgG Fc)
T2 sequence (looked up): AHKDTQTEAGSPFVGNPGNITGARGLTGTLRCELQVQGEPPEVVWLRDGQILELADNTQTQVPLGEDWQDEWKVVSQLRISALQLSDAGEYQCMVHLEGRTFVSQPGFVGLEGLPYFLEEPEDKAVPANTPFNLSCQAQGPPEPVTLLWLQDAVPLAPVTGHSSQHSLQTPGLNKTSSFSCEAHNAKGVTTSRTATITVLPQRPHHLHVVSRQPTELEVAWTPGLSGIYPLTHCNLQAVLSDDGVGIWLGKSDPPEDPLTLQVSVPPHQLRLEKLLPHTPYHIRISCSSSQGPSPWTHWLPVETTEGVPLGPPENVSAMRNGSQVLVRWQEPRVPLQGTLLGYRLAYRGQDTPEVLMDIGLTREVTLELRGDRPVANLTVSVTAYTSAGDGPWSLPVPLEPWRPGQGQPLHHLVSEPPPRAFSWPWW
Description: ELISA on coated rmAxl-Fc, detection with goat anti-mouse IgG-HRP. The protocol: Briefly, the recombinant mouse Axl-Fc (R and D systems, cat No 854-AX/CF) proteins were coated overnight at 4° C. to Immulon II 96-well plates and, after a 1 h blocking step with a 0.5% gelatine solution, the 1613F12 purified antibody was added for one additional hour at 37° C. at starting concentration of 5 μg/m (3.33 10⁻⁸M). Then ½ serial dilutions were done over 12 columns. Plates were then washed and a goat anti-mouse (Jackson) specific IgG HRP was added for 1 h at 37° C. Reaction development was performed using the TMB substrate solution. […] Coating controls are performed in presence of a goat anti-human IgG Fc polyclonal serum coupled with HRP (Jackson, ref 109-035-098) and/or in presence of a HRP-coupled anti-Histidine antibody (R and D Systems, ref: MAB050H).

Results on one molecule are retold here after patent US20150037340A1 (PEIRRE FABRE MEDICAMENT, published 2015).

B1: 1613F12 antibody (murine form) (antibody, V domains shown)
VH: EVHLQQSGAELVKPGASVKLSCTASGFNIRDTYIHWVKQRPEQGLEWIGRLDPANGHTKYGPNFQGRATMTSDTSSNTAYLQLSSLTSEDTAVYYCARGAYYYGSSGLFYFDYWGQGTTLSVSS
VL: DVQITQSPSYLATSPGETITINCRASKSISKYLAWYQEKPGKTNKLLIYSGSTLQSGVPSRFSGSGSGTDFTLTISSLEPEDFAMYFCQQHHEYPLTFGAGTELELK
notes: Whole murine monoclonal antibody purified from a hybridoma; a murine IgG1 (9G4) serves as its isotype control; also called m1613F12; monoclonal antibody 1613F12 derived from the hybridoma I-4505
On to B1, for which the half-maximal effective concentration (EC50 (read off the curve)) in assay [1] is around 1 nM. Besides, the binding result in assay [2] is “no binding (tested: log -7.5 M)”.
